The series concerns the target T1, MBP-METTL7A WT (human, UniProt Q9H8H3 1-244).
T1 sequence: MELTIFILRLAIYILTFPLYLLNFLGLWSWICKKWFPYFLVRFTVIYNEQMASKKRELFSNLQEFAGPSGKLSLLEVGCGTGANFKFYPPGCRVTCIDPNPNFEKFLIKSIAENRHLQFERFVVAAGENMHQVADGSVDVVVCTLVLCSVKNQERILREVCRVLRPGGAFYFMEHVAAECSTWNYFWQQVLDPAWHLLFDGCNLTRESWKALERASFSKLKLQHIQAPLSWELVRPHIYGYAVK
As to the kind of experiment: EMSA.

B1: 60 bp dsDNA (dsDNA)
DNA 1: ATTCTTCCGAGTTTTTTCCTCATCTCACTTCCAATACAGAAAGCTTGCCCCGCCCTTCCT
DNA 2: AGGAAGGGCGGGGCAAGCTTTCTGTATTGGAAGTGAGATGAGGAAAAAACTCGGAAGAAT
Consider B1, for which the binding result is “binds”.

Values taken from publication PMC11838195.
